The data set can be described thus: label from the status in PepcDB records.

On to “MVSNGSIIHVNQNQFMMLVDGGKIVDYTAEPGYFKVENSASPSLFGGQFGDALKETFSRFKFGGTTPMKQEVFYVNLQEIKGIKFGTPNPLQYFDNFYNAELFLRTFGNYSIKITDPIKFFKEACPRDAENVHIDEINEQYLSEFLEALQAAISQMSMEGERISFIPSKGTVLSKHMSEILDDSWKELRGMEVLSVGIASISYDDESKELINMRNKGAMLGDPGVREGYVQGSIARGMEAAGSNQAGAGMAFMGMGMGMNAAGGFMGQASQTNMQQMQMNQAAQRAAQGAGQQQGAGAKAAGEWFCTECGHKNTGKFCAECGTPKPQGSGCPSCGAELKAGAKFCPECGTKLLEHHHHHH”, for which the protein production entry is “not failed”. As for “MVSRQEGTLYSRKRDFTVCGEEFHNSFKKSKQEDQSQSTLFNERPKSESMRSITFDFELHLHTPLPSDWQTKMSLDLELNLSPSGSPSRTTTKKYESSSIHNETVSSSKIKVLTNTSKKSIIGTGLSRSPSWLAFEGGDDNDVDHKGQEMVTTVCMKCHMLVMLCTSTPVCPNCKFMHPHDHSSTKLFKPSNLLRLLC”, the entry is “failed”; as for “MVSYPVWDSAMFAYTISSHILLVTLTLGLALLITISEFIGIKYKNRYFLTLARKASTALVINFAVGTASGIFMAVELYLFWPEFMKVVGAVAMSAFYAEVFAFLLESITLMMYVYFWDNFKNRWNHWLTSIGVLVGTGGSAALITDVNAWMNTPEGSFNIPYYLKTGIITDVNPWKVFWEPSTFAEQFHMYAVEYFAGSMMLLGYFAYKYLRSSGADERLVYSAGLKILSVIAIIDIIIVGASGSNELDTLLVVEPLKYAALEQDMVPVTYGAPEHIFGIIINGHPAYYVNLPLAQSLLAYPFTFGHGYIPGLSSYPSSVWPPSFVHDTLDLMVGFGLLMGFFWLIVVIMYFMKKDPLNKRSVLKALMFFSGMAVYTMEDGWYTAEVGRVPGIILYDKPPYYVMTIGQAASTSPVVFPLGMAIIIFYIVLIPLTLYFMAKVLKVSNIEDDLRHADDDLSKVGKSTPAGMR”, “failed”. Take “MVTKLALLGAGRIGKVHAKAITTDSRAKLVAVVDAMAGAAEAIAREAQCKVSTIDEVLADKTIDAVIICTPTNTHADLIERFARAGKAIFCEKPVDLDVARAEACAKVVEETGAKVMLGFNRRFDPHFQAVHKAIEDGRIGKVEMVTITSRDPGPPPAEYIKVSGGIFRDMTIHDFDMARFLLGEEVESVFATGSVLVNPEIGALGDFDSASIILTTKSGRQAIISNSRRATYGYDQRIEVHGSEGSAAAENQRPVSIEIANADGYTRPPLHDFFMTRYTTAYAAEIAAFIDSIENNVSPSPSIKDGLIALKLADAALKSATSKTVVTIG”: the protein production result is “failed”. As for “MVTLSDPNRRSRRIKRITIVGCLGNLLLTIGKFFSGFVGHSGAMIADAVHSLSDLLTDFVVFIFISISGKPSDKNHDYGHGKFETLATAIIAVTLIIIGAMLCSDGLTKVYRYLRFGDELARPGLIALLMAFVSIVAKEWLFRITRCVGKEENSRSVIANAWHHRSDAYTSVATFIGIGCAFLLGRGWMILEPLSAAVVSVFIIKVGFQMAVPAFRDLLEQSLPDDIEEEIEKIICSESMVKGVRRIRTRNIGNYYAVEADILMDGGLSVALSHAATQRVEKLLRGRYGQPTHIVIHVEPFS”, the entry is “failed”.

Turning to “MVTLTLLEPQQKTPLKQWCFENSSVIRIGRAADNHVILSDNLVSRHHLEIRQVSSGGGGSWQVVSKGTNGTFLNGVLVIQDALPNNALLQLAQGGPILQFQVQGIIPPEWQSISGSDSPLSGRGSLAEKSSPELSNNPGSLTCTHEGNSPQNLFCIHCGQPLSVIQTIRHYQVLRTLGQGGMGTTYLAWDAAGVIVGHPKLLVLKQMNADMARIAKAQELFEREAYTLKSLDHPGIPRYYDFFVEGGKKYLAMELVHGQDLEKRIYATGPVIPSLAIAWMIQTCDILDYLHRQEQPLIHRDIKPANLMVRTANNQIAVLDFGAVKEIGTTPGTRIGAEGYCAPEQERGQPLTQSDLYAIGPTIIFLLTGENPFKFYRQKGRGFRFDVSKIPTITPKLRDVIERTTEPLPRDRFQSAKELAAALAACK”, the protein production result is “failed”. Consider “MVTQEQRRRQLAREKFLRQQQRRTSARRKARMRNAAIASVLGVILIGSVALYTTGVVLGDDDDKTNAGAEVTPSASAPSKAPDPCDKPADGKVKTQTWKKEPAMTVDKSAKYTMKLATTCGDIDLALKADAAPHTVNSFDFLAGKGYFDHTKCHRLTTEGIYVLQCGDPTAQGNGGPGYNIPDENLKDKSLKDNVYPAGTVAMANTGQPDSGGSQFFLVYQDSQLPPSYTPFGTVSKEGMTVLKKIASAGAQPADPTTGNTAPNATVVIDKATVSKS”, for which the protein production entry is “failed”.

The values are drawn from a protein production outcome set (Wang et al. 2014).
